The labels stand for the following.
B1: TPR t1 (parent)
chain: GACCAAUCUGCCCUCAGAGCUCGAGAACAUCUUCGGAUGCAGAGGAGGCAGGCUUCGGUGGCGCGAUAGCGCCAACGUCCUCAACCUCCAAUGCAUCCCACCACAUGAUGAUGCCUGAAGAGCCUUGGUUUUUUG

Variants of B1 are the subject of the series. Nature of the series: polymerase ribozyme fitness, log enrichment relative to wild type (log ratio); higher = more active; in vitro selection for triplet polymerase activity. An outline of the steps:
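Each subunit of a heterodimeric triplet polymerase ribozyme was represented by a PCR-built, transcribed mutant library that underwent triplicate single-round in vitro selection with frozen incubation at −7 °C. Extended constructs were recovered by gel excision, streptavidin-bead capture and RT-PCR, and Illumina sequencing of input and output libraries kept genotypes with ≥10 input reads and ≥1 read per output. Fitness is the logarithm of genotype enrichment relative to wild-type enrichment, from inverse-variance-weighted replicate averages, with a logarithm base of 2.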
As to U7G U59A U130G, the “polymerase ribozyme fitness (log ratio)” value is -0.396.
To U7C C62U A111U U133A belongs -2.88; to U7G G17A G39A U55A C82G C115A U130C, -2.79.
Then U7G U14G C34G, with -5.56.
To C8A G44A G57A G77A G110U C123U belongs -4.41.
In the case of C8A A29G C115U U126G, the “polymerase ribozyme fitness (log ratio)” value was -2.36.
Then U7G C70U G93C, with -0.518; and U7G C12G G17U U21G G69U C86U C124A, with -6.15.
With U7C U14C C70U, the “polymerase ribozyme fitness (log ratio)” value is -2.11.
Turning to C8A G19A U87C A91C G113C G127C, the “polymerase ribozyme fitness (log ratio)” value was -2.18.
As for U7G G17U C28U A90C U106A, the “polymerase ribozyme fitness (log ratio)” value was -2.82.
To U7G A29C C72A C82A G120C belongs -0.586; to U7G G23A, -4.28; to U7C G58C A91C, -1.02.
To U7G G65U G120A belongs -4.13; to C8A C40G, 0.0349; to U7G C53U C62G C101G C102A G120U G127A, -7.14.
To U7G G42A U81A U109A U130C belongs -5.79; to U7G G45A U59G U129A, -1.45.
As for U7G C53G C115U U116G, the “polymerase ribozyme fitness (log ratio)” value is -0.555.
Then U7G G77C, with 0.424; and U7G G44U G52C C82G G113A C124U, with -3; and C8A C34A C98G U126G, with -4.07.
To U7G C88U belongs -0.443.
Then U7G A84G U133G G135U, with 0.51; and C8A C11U G17C, with -2.13; and C8A C12G G61C C123A, with -0.379.
In the case of C8A C70G, the “polymerase ribozyme fitness (log ratio)” value was -1.76.
Then U7G C79U C80U, with -1.81; and U7G A95G, with 0.461; and U7G C49U C56U U78C C94U A111C, with -0.959.
To U7C C40A C56G belongs -1.43; to C8A G36U G42A C62U, -2.62.
Then U7G G44A C62G A74U C80G G117C, with -7.
With U7C C73A, the “polymerase ribozyme fitness (log ratio)” value is -0.286.
To C8A A50U U59C G63C belongs -4.31; to C8A A66U C124G, 0.659.
To C8A C82G belongs -0.777; to C8A C20A U126A, -3.84; to C8A C72U, 0.071.
Then U7C C31U G61C G71U C72G G120U, with -5.19; and C8A G45U C56U A84C A95U, with -1.21; and U7G C72G, with 0.441.
As for U7G C72U, the “polymerase ribozyme fitness (log ratio)” value was 0.255.
Then C8A C53U C56A A75G, with 0.188.
Consider C8A A16G A43C, for which the “polymerase ribozyme fitness (log ratio)” value is -1.35.
Regarding C8A A75U C85A A90C G93A, the “polymerase ribozyme fitness (log ratio)” value was -3.24.
Then U7G U55G C82U, with 0.425; and C8A G19C U59A C82A, with -3.12.
To U7G U32G C98A belongs -5.15; to U7C G10A C11G A91U A111G, -1.99.
Then U7G U21A U55G A121C, with 1.32; and U7G A46U G63C C102A C104A A111U G128C, with -7.59; and U7G A103C G120A, with -2.83.
Consider U7C C34G G69C G120A, for which the “polymerase ribozyme fitness (log ratio)” value is -6.41.
With U7C G42C C72A C88U C115U U133A, the “polymerase ribozyme fitness (log ratio)” value is -0.456.
Then C8A G35U, with -4.85; and C8A A29U G69U, with -0.0842; and U7C U14G A37C, with -1.12.
On to U7C G48U A50G G61A C89U, for which the “polymerase ribozyme fitness (log ratio)” value is -1.71.
As to U7G A16U A43U C49U C70A C89A U116G, the “polymerase ribozyme fitness (log ratio)” value was -4.88.
To C8A G35A C89U G117C belongs -6.27; to U7G C79U C124G, 2.41; to U7G U129A, -0.778.
With U7C G19U U54C A66C, the “polymerase ribozyme fitness (log ratio)” value is -5.92.
Then C8A A43C G44A C53A C86U G93U, with -2.53; and C8A A43C G57A C72G U96C A103G A108G U109G, with -5.5.
To C8A C12U C40A belongs -0.186; to C8A C62A U130G, -0.621; to U7G C12A C97U G117C, -3.54.
As for C8A C40U A103C, the “polymerase ribozyme fitness (log ratio)” value is -3.75.
Then U7G C56G C86G U96G, with -2.15; and C8A A41U U112C, with 0.774.
Then U7G G69C C86U, with -1.06; and C8A C80G C82G C88A C114U, with -6.78; and C8A A24U G61U C115U G117A, with -7.42.
Then U7G G45C G52C C79U C102A, with -3.37; and C8A C64U A121G, with 1.81.
As for U7G C28U G48A G61A, the “polymerase ribozyme fitness (log ratio)” value was -1.28.
Then C8A A37C C101G, with -1.22.
To C8A C56G belongs 0.28; to U7G G17U G61U, -0.326; to C8A C80U A105C U112G G120C, -3.09.
To U7G G10U U78C C101A G122A belongs -1.81.
For U7G A37C A95C, the “polymerase ribozyme fitness (log ratio)” value stood at 0.483.
Turning to U7C G19U U54C C72G, the “polymerase ribozyme fitness (log ratio)” value was -3.1.
To C8A C62U A74C C89A C104A U112C belongs -3.01.
Then C8A A37G A100C, with -0.161; and U7G G120C, with 0.815; and U7C C89U U109A, with -4.17.
Then C8A G42A C62A C114U, with -2.59; and U7G A18U A121U, with 0.525.
C8A G10A G47A: the “polymerase ribozyme fitness (log ratio)” value was -1.74.
Then U7G A83U U87A A95U C124A, with 0.494; and U7G C56A A84G U133G G135U, with -0.824; and U7C G93A U132C, with -0.396.
As to U7G C70A C72U G93C C115U, the “polymerase ribozyme fitness (log ratio)” value was -4.07.
Then C8A A18U G45C U109A, with -5.8.
To U7G G107A belongs -4.15.
To C8A A46G C101U belongs -0.289; to C8A C64U U78A C94G A100U C102A U112A G128A U129A G135C, -4.75.
Turning to C8A C64A U112C U125A, the “polymerase ribozyme fitness (log ratio)” value is -5.5.
C8A A18G U109C C115A: the “polymerase ribozyme fitness (log ratio)” value is -5.42.
Turning to C8A A41U C49G G61A U81C A100U, the “polymerase ribozyme fitness (log ratio)” value was -8.29.
To U7G G10A C49U U112G belongs -2.64; to C8A C64G A111G A121C U129A, -6.98.
Then U7G G23C C82U C86G G110C, with -7.53.
Then C8A, with 0.459; and C8A C13U U38A C97A, with -6.04; and U7C U106C, with -0.478.
As for C8A C22G G113U C114G, the “polymerase ribozyme fitness (log ratio)” value was -3.52.
Then U7G G35U G57U U87A A121G, with -3.9; and U7G C104A, with -2.23; and U7C U14A A46U, with -2.65.
Then U7G U21C G47U C56U, with -1.15.
Then U7G C12A A43U C73A, with -1.44.
With U7C G71A G127U U133G, the “polymerase ribozyme fitness (log ratio)” value is -1.83.
Then U7G A29U C56A C76U, with -1.78.
To C8A A46U A74U A100U C102U C115A belongs -2.37; to C8A C72A U81G G120U, -0.73; to U7C U78G C82G C99A U112G G128U, -5.9.
Then U7G C40U, with 0.849; and C8A C13U G36C, with -0.24; and U7G A24U C102G U109A, with -4.85.
Take U7G G36C: the “polymerase ribozyme fitness (log ratio)” value amounted to 0.162.
To U7C G48U A50G C89U belongs -1.26; to U7G A46U G61C U112A, -1.98.
Then U7C U21G G45C G71U, with -2.5; and U7G G61U C70G, with -5.24; and C8A A37U C104A, with -1.64.
Take U7G C64U C97U G107A U112A: the “polymerase ribozyme fitness (log ratio)” value was -5.51.
Turning to C8A C34G G110C U129G, the “polymerase ribozyme fitness (log ratio)” value is -8.1.
Regarding C8A C89U, the “polymerase ribozyme fitness (log ratio)” value came to 0.136.
Then C8A G39U C64U A111U U116G U129G, with -5.99; and U7G G71C A111G C115U G120U, with -4.01; and C8A C94A A119G, with -0.132.
Then U7C G42U G47A, with -1.32; and U7G C97G, with -3.9.
For the variant U7G A41G C53A C72G C79U A90U A111C, the “polymerase ribozyme fitness (log ratio)” value was -2.28.
For U7G C102A, the “polymerase ribozyme fitness (log ratio)” value was -0.8.
With U7G C13G, the “polymerase ribozyme fitness (log ratio)” value was 0.14.
To U7G C40U C72A C86U G93U C102A U106A belongs -5.6; to U7G G52U C64U C123G, 1.52.
On to U7G U30A C101U U109A C124A, for which the “polymerase ribozyme fitness (log ratio)” value is -3.51.
In the case of U7G C70G, the “polymerase ribozyme fitness (log ratio)” value was -2.23.
Then C8A C72G C101G, with -2.08.
To U7C C56G U78C A84U G113C belongs -2.73.
Then U7G C70G C102U U106A, with -4.46; and U7G C56A G57U C89A, with -0.967; and U7G C20A G39A C49G G61C A121G, with -3.89.
For the variant C8A A37G C62G C72G U112G G127A, the “polymerase ribozyme fitness (log ratio)” value was -5.98.
To U7G C94G belongs -0.426; to U7G G61A C76A C94A G110C G117C, -7.29.
Then U7G G51U G60U A111C, with -2.64.
Consider U7G U109C, for which the “polymerase ribozyme fitness (log ratio)” value was -3.87.
To C8A A18C U21G belongs -4.13; to C8A C49U, 0.0763; to C8A C28G G61A, -2.22.
Then C8A C22G C31U G36C G61C, with -6.63; and U7C G39A C115U G128C, with -3.58; and U7G G19A G44C C114G G120U, with -3.21.
To U7G A83U belongs -0.221; to C8A C123U, 1.44; to C8A C76U U87A U112A A121C U133G, 0.984.
With C8A C20A C79A, the “polymerase ribozyme fitness (log ratio)” value is -3.7.
To C8A C28A C56U C82U U106A C115A belongs -2.02; to U7G C70U A83C C97A, -5.37.

For the origin of these results see the RNAGym collection of RNA variant scans (doi:10.1073/pnas.2313332121).
